Data: US12186374B2 (Sanofi-Aventis Deutschland GmbH, priority 2014, dated 2025)

Legend:
[1] = system: patients with Type 2 diabetes mellitus (T2DM); assay: Pen-related event questionnaire (Example 2); conditions: on-treatment period
[2] = system: patients with T2DM; assay: Treatment-emergent adverse events incl. serious, fatal, leading to discontinuation (Example 3)
[3] = PT ≥3% in any treatment group, Safety population

**Q.** With “Gly(A21)-Arg(B31)-Arg(B32)-human insulin [Insulin Glargine]” as the substance, how does the “Patients reporting pen-related events, %” value ([1]; Example 2) read?
**A.** The value was 2.1%.

**Q.** And the “Patients reporting pen-related events, number” value ([1]; Example 2)?
**A.** The value was 10 patients.

**Q.** And the “Patients with events reported in pen-related event questionnaire: Any pen-related events” value ([1]; Safety population)?
**A.** Its value is 10 (2.1%) Number (%).

**Q.** What about the “Pen-related events: Associated with a clinical event” value ([1]; Safety population) of the same substance?
**A.** The value was 0 Number (%).

**Q.** What about the “Pen-related events: Not associated with a clinical event” value ([1]; Safety population) of the same substance?
**A.** The value was 10 (2.1%) Number (%).

**Q.** And the “Diarrhoea, % of patients” value ([2]; Example 3)?
**A.** The value was 2.7%.

**Q.** And the “Incidence of gastrointestinal disorder (System organ class) events” value ([2]; Example 3)?
**A.** Its value is 7.9%.

**Q.** What about the “Nasopharyngitis, % of patients” value ([2]; Example 3) of the same substance?
**A.** Its value is 8.8%.

**Q.** And the “Nausea, % of patients” value ([2]; Example 3)?
**A.** The value was 0.5%.

**Q.** And the “Patients discontinuing due to nausea, number” value ([2]; Example 3)?
**A.** The value was “none”.

**Q.** And the “Patients reporting treatment-emergent adverse events, %” value ([2]; Example 3)?
**A.** The value was 52.3%.

**Q.** And the “Patients reporting treatment-emergent adverse events, number” value ([2]; Example 3)?
**A.** Its value is 191 patients.

**Q.** And the “Patients who withdrew from treatment due to TEAEs, %” value ([2]; Example 3)?
**A.** Its value is 0.8%.

**Q.** What about the “Patients who withdrew from treatment due to TEAEs, number” value ([2]; Example 3) of the same substance?
**A.** The value was 3 patients.

**Q.** And the “Patients with at least 1 TEAE leading to death” value ([2]; Example 3)?
**A.** Its value is 2 patients.

**Q.** And the “Serious TEAEs, % of patients” value ([2]; Example 3)?
**A.** The value was 4.9%.

**Q.** And the “Serious TEAEs, number of patients” value ([2]; Example 3)?
**A.** Its value is 18 patients.

**Q.** And the “Vomiting, % of patients” value ([2]; Example 3)?
**A.** Its value is 0.5%.

**Q.** And the “Common TEAE, PT Diarrhoea, number of patients” value [2, 3]?
**A.** Its value is 10 n.

**Q.** And the “Common TEAE, PT Diarrhoea, percentage of patients” value [2, 3]?
**A.** Its value is “(2.7%)”.

**Q.** And the “Common TEAE, PT Headache, number of patients” value [2, 3]?
**A.** The value was 10 n.

**Q.** And the “Common TEAE, PT Headache, percentage of patients” value [2, 3]?
**A.** Its value is “(2.7%)”.

**Q.** And the “Common TEAE, PT Influenza, number of patients” value [2, 3]?
**A.** The value was 11 n.

**Q.** And the “Common TEAE, PT Influenza, percentage of patients” value [2, 3]?
**A.** The value was “(3.0%)”.

**Q.** And the “Common TEAE, PT Nasopharyngitis, number of patients” value [2, 3]?
**A.** The value was 32 n.

**Q.** And the “Common TEAE, PT Nasopharyngitis, percentage of patients” value [2, 3]?
**A.** The value was “(8.8%)”.

**Q.** What about the “Common TEAE, PT Nausea, number of patients” value [2, 3] of the same substance?
**A.** Its value is 2 n.

**Q.** And the “Common TEAE, PT Nausea, percentage of patients” value [2, 3]?
**A.** Its value is “(0.5%)”.

**Q.** And the “Common TEAE, PT Upper respiratory tract infection, number of patients” value [2, 3]?
**A.** The value was 11 n.

**Q.** What about the “Common TEAE, PT Upper respiratory tract infection, percentage of patients” value [2, 3] of the same substance?
**A.** The value was “(3.0%)”.

**Q.** And the “Common TEAE, PT Vomiting, number of patients” value [2, 3]?
**A.** The value was 2 n.

**Q.** And the “Common TEAE, PT Vomiting, percentage of patients” value [2, 3]?
**A.** Its value is “(0.5%)”.

**Q.** And the “Common TEAE, SOC Gastrointestinal disorders, number of patients” value [2, 3]?
**A.** The value was 29 n.

**Q.** What about the “Common TEAE, SOC Gastrointestinal disorders, percentage of patients” value [2, 3] of the same substance?
**A.** Its value is “(7.9%)”.

**Q.** What about the “Common TEAE, SOC Infections and infestations, number of patients” value [2, 3] of the same substance?
**A.** The value was 112 n.

**Q.** And the “Common TEAE, SOC Infections and infestations, percentage of patients” value [2, 3]?
**A.** Its value is “(30.7%)”.

**Q.** And the “Common TEAE, SOC Nervous system disorders, number of patients” value [2, 3]?
**A.** Its value is 19 n.

**Q.** And the “Common TEAE, SOC Nervous system disorders, percentage of patients” value [2, 3]?
**A.** Its value is “(5.2%)”.

**Q.** And the “% of patients experiencing TEAE(s) leading to permanent treatment discontinuation: Cardiopulmonary failure” value ([2]; PT, Safety population)?
**A.** Its value is “(0.3%)”.

**Q.** What about the “% of patients experiencing TEAE(s) leading to permanent treatment discontinuation: Gallbladder cancer” value ([2]; PT, Safety population) of the same substance?
**A.** Its value is “(0.3%)”.

**Q.** And the “% of patients experiencing TEAE(s) leading to permanent treatment discontinuation: Pregnancy” value ([2]; PT, Safety population)?
**A.** Its value is “(0.3%)”.

**Q.** And the “% of patients experiencing serious TEAE(s): Benign prostatic hyperplasia” value ([2]; PT, Safety population)?
**A.** The value was “(0.3%)”.

**Q.** And the “% of patients experiencing serious TEAE(s): Cardiac failure congestive” value ([2]; PT, Safety population)?
**A.** Its value is “(0.3%)”.

**Q.** And the “% of patients experiencing serious TEAE(s): Cardiopulmonary failure” value ([2]; PT, Safety population)?
**A.** Its value is “(0.3%)”.

**Q.** And the “% of patients experiencing serious TEAE(s): Chest discomfort” value ([2]; PT, Safety population)?
**A.** Its value is “(0.3%)”.

**Q.** What about the “% of patients experiencing serious TEAE(s): Cholecystitis acute” value ([2]; PT, Safety population) of the same substance?
**A.** The value was “(0.3%)”.

**Q.** What about the “% of patients experiencing serious TEAE(s): Gallbladder cancer” value ([2]; PT, Safety population) of the same substance?
**A.** Its value is “(0.3%)”.

**Q.** And the “% of patients experiencing serious TEAE(s): Glaucoma” value ([2]; PT, Safety population)?
**A.** The value was “(0.3%)”.

**Q.** And the “% of patients experiencing serious TEAE(s): Hypertension” value ([2]; PT, Safety population)?
**A.** Its value is “(0.3%)”.

**Q.** And the “% of patients experiencing serious TEAE(s): Hypoglycaemia” value ([2]; PT, Safety population)?
**A.** Its value is “(0.3%)”.

**Q.** What about the “% of patients experiencing serious TEAE(s): Intervertebral disc protrusion” value ([2]; PT, Safety population) of the same substance?
**A.** Its value is “(0.3%)”.

**Q.** And the “% of patients experiencing serious TEAE(s): Kaposi’s sarcoma” value ([2]; PT, Safety population)?
**A.** The value was “(0.3%)”.

**Q.** What about the “% of patients experiencing serious TEAE(s): Meniscus injury” value ([2]; PT, Safety population) of the same substance?
**A.** The value was “(0.3%)”.

**Q.** What about the “% of patients experiencing serious TEAE(s): Non-cardiac chest pain” value ([2]; PT, Safety population) of the same substance?
**A.** The value was “(0.3%)”.

**Q.** What about the “% of patients experiencing serious TEAE(s): Osteomyelitis” value ([2]; PT, Safety population) of the same substance?
**A.** Its value is “(0.3%)”.

**Q.** What about the “% of patients experiencing serious TEAE(s): Pneumonia” value ([2]; PT, Safety population) of the same substance?
**A.** Its value is “(0.3%)”.

**Q.** What about the “% of patients experiencing serious TEAE(s): Renal impairment” value ([2]; PT, Safety population) of the same substance?
**A.** Its value is “(0.3%)”.

**Q.** What about the “% of patients experiencing serious TEAE(s): Wound infection” value ([2]; PT, Safety population) of the same substance?
**A.** The value was “(0.3%)”.

**Q.** And the “Number of patients experiencing TEAE(s) leading to permanent treatment discontinuation: Angina unstable” value ([2]; PT, Safety population)?
**A.** The value was 0.

**Q.** What about the “Number of patients experiencing TEAE(s) leading to permanent treatment discontinuation: Benign gastric neoplasm” value ([2]; PT, Safety population) of the same substance?
**A.** Its value is 0.

**Q.** And the “Number of patients experiencing TEAE(s) leading to permanent treatment discontinuation: Cardiopulmonary failure” value ([2]; PT, Safety population)?
**A.** The value was 1.

**Q.** And the “Number of patients experiencing TEAE(s) leading to permanent treatment discontinuation: Dizziness” value ([2]; PT, Safety population)?
**A.** The value was 0.

**Q.** And the “Number of patients experiencing TEAE(s) leading to permanent treatment discontinuation: Gallbladder cancer” value ([2]; PT, Safety population)?
**A.** The value was 1.

**Q.** What about the “Number of patients experiencing TEAE(s) leading to permanent treatment discontinuation: Hypoglycaemic unconsciousness” value ([2]; PT, Safety population) of the same substance?
**A.** The value was 0.

**Q.** And the “Number of patients experiencing TEAE(s) leading to permanent treatment discontinuation: Nausea” value ([2]; PT, Safety population)?
**A.** The value was 0.

**Q.** What about the “Number of patients experiencing TEAE(s) leading to permanent treatment discontinuation: Pneumonia” value ([2]; PT, Safety population) of the same substance?
**A.** Its value is 0.

**Q.** What about the “Number of patients experiencing TEAE(s) leading to permanent treatment discontinuation: Pregnancy” value ([2]; PT, Safety population) of the same substance?
**A.** Its value is 1.

**Q.** What about the “Number of patients experiencing TEAE(s) leading to permanent treatment discontinuation: Weight increased” value ([2]; PT, Safety population) of the same substance?
**A.** The value was 0.

**Q.** And the “Number of patients experiencing serious TEAE(s): Acute myocardial infarction” value ([2]; PT, Safety population)?
**A.** Its value is 0.

**Q.** And the “Number of patients experiencing serious TEAE(s): Angina unstable” value ([2]; PT, Safety population)?
**A.** Its value is 0.

**Q.** And the “Number of patients experiencing serious TEAE(s): Arteriosclerosis coronary artery” value ([2]; PT, Safety population)?
**A.** Its value is 0.

**Q.** And the “Number of patients experiencing serious TEAE(s): Benign breast neoplasm” value ([2]; PT, Safety population)?
**A.** Its value is 0.

**Q.** What about the “Number of patients experiencing serious TEAE(s): Benign gastric neoplasm” value ([2]; PT, Safety population) of the same substance?
**A.** The value was 0.

**Q.** What about the “Number of patients experiencing serious TEAE(s): Benign prostatic hyperplasia” value ([2]; PT, Safety population) of the same substance?
**A.** The value was 1.

**Q.** And the “Number of patients experiencing serious TEAE(s): Breast cancer” value ([2]; PT, Safety population)?
**A.** The value was 0.
